# According to the supplement of paper PMC9112550, “Optimization of the antimicrobial peptide Bac7 by deep mutational scanning” (BMC Biology, 2022):
# Test system: Escherichia coli TOP10
# Test: shrunken log2 fold change of peptide-encoding DNA abundance (4.5 h post-induction vs induction); higher = less antimicrobial activity (less host growth inhibition)
# Conditions: time post-induction: 4.5 h; library: site-saturation at positions 5, 18, 19, 20
# 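Further: peptides expressed intracellularly from a pBAD plasmid library in pooled LB shake-flask culture, induced with 0.3% L-arabinose, DNA abundance read by NGS, three biological replicates, DESeq2 with apeglm shrinkage.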
row,Sequence,shrunken log2 fold change
1,RRIRCRPPRLPRPRPRPPIKPRP,-0.0789
2,RRIRDRPPRLPRPRPRPDQIPRP,-0.0336
3,RRIRIRPPRLPRPRPRPTIGPRP,-0.396
4,RRIRYRPPRLPRPRPRPERFPRP,0.0461
5,RRIRCRPPRLPRPRPRPTSTPRP,-0.165
6,RRIRARPPRLPRPRPRPPNYPRP,-0.0985
7,RRIRYRPPRLPRPRPRPCTYPRP,-0.194
8,RRIRRRPPRLPRPRPRPSNAPRP,0.204
9,RRIRCRPPRLPRPRPRPSFNPRP,-0.882
10,RRIRARPPRLPRPRPRPGARPRP,0.59
11,RRIRIRPPRLPRPRPRPHASPRP,-0.012
12,RRIRQRPPRLPRPRPRPMWLPRP,-0.22
13,RRIRIRPPRLPRPRPRPFPWPRP,-0.519
14,RRIRDRPPRLPRPRPRPAIAPRP,0.878
15,RRIRFRPPRLPRPRPRPWECPRP,-0.0123
16,RRIRTRPPRLPRPRPRPMYRPRP,-0.0591
17,RRIRHRPPRLPRPRPRPRFHPRP,-0.162
18,RRIRFRPPRLPRPRPRPCEDPRP,-0.13
19,RRIRERPPRLPRPRPRPGWMPRP,0.144
20,RRIRIRPPRLPRPRPRPPMEPRP,-0.0294
21,RRIRCRPPRLPRPRPRPHCTPRP,-0.88
22,RRIRTRPPRLPRPRPRPNTDPRP,-0.615
23,RRIRYRPPRLPRPRPRPTYGPRP,-0.196
24,RRIRHRPPRLPRPRPRPVPRPRP,0.429
25,RRIRIRPPRLPRPRPRPRNWPRP,0.18

row,Sequence,shrunken log2 fold change
1,RRIRHRPPRLPRPRPRPTHHPRP,-0.132
2,RRIRDRPPRLPRPRPRPIFKPRP,-0.118
3,RRIRMRPPRLPRPRPRPDRCPRP,0.0778
4,RRIRRRPPRLPRPRPRPGGTPRP,0.245
5,RRIRMRPPRLPRPRPRPRQKPRP,0.183
6,RRIRVRPPRLPRPRPRPSWPPRP,0.493
7,RRIRPRPPRLPRPRPRPTAYPRP,-0.203
8,RRIRQRPPRLPRPRPRPHSLPRP,0.178
9,RRIRWRPPRLPRPRPRPDFVPRP,0.0377
10,RRIRNRPPRLPRPRPRPMFPPRP,-0.235
11,RRIRPRPPRLPRPRPRPQNEPRP,-0.183
12,RRIRVRPPRLPRPRPRPRRVPRP,0.256
13,RRIRKRPPRLPRPRPRPCWIPRP,-0.0557
14,RRIRARPPRLPRPRPRPSTGPRP,-0.131
15,RRIRRRPPRLPRPRPRPQMTPRP,0.238
16,RRIRLRPPRLPRPRPRPTNGPRP,0.129
17,RRIRTRPPRLPRPRPRPASSPRP,-0.362
18,RRIRNRPPRLPRPRPRPWMPPRP,-0.105
19,RRIRRRPPRLPRPRPRPITDPRP,-0.101
20,RRIRSRPPRLPRPRPRPKKTPRP,-0.356
21,RRIRCRPPRLPRPRPRPGQAPRP,-0.0147
22,RRIRWRPPRLPRPRPRPYENPRP,-0.19
23,RRIRMRPPRLPRPRPRPRMFPRP,0.154
24,RRIRCRPPRLPRPRPRPQAAPRP,0.225
25,RRIRLRPPRLPRPRPRPMCHPRP,-0.0587

row,Sequence,shrunken log2 fold change
1,RRIRIRPPRLPRPRPRPIKKPRP,-0.0505
2,RRIRWRPPRLPRPRPRPKTLPRP,0.19
3,RRIRVRPPRLPRPRPRPVSIPRP,0.126
4,RRIRQRPPRLPRPRPRPMVFPRP,0.111
5,RRIRFRPPRLPRPRPRPGIRPRP,-0.136
6,RRIRARPPRLPRPRPRPWLQPRP,-0.0599
7,RRIRFRPPRLPRPRPRPHVRPRP,-0.271
8,RRIRKRPPRLPRPRPRPYNYPRP,-0.898
9,RRIRYRPPRLPRPRPRPFREPRP,-0.35
10,RRIRYRPPRLPRPRPRPCYSPRP,-0.00871
11,RRIRARPPRLPRPRPRPFVTPRP,-0.166
12,RRIRYRPPRLPRPRPRPHRDPRP,-0.288
13,RRIRDRPPRLPRPRPRPSISPRP,-0.0844
14,RRIRSRPPRLPRPRPRPMGCPRP,-0.112
15,RRIRQRPPRLPRPRPRPHQCPRP,-0.401
16,RRIRDRPPRLPRPRPRPPANPRP,0.0989
17,RRIRFRPPRLPRPRPRPKQMPRP,0.382
18,RRIRFRPPRLPRPRPRPMSWPRP,0.131
19,RRIRWRPPRLPRPRPRPQMWPRP,0.369
20,RRIRERPPRLPRPRPRPVAHPRP,0.0475
21,RRIRPRPPRLPRPRPRPMIMPRP,-0.0291
22,RRIRKRPPRLPRPRPRPRHYPRP,-0.0867
23,RRIRCRPPRLPRPRPRPPIWPRP,0.134
24,RRIRHRPPRLPRPRPRPQGIPRP,0.0372
25,RRIRYRPPRLPRPRPRPWFKPRP,-0.12

row,Sequence,shrunken log2 fold change
1,RRIRARPPRLPRPRPRPKEQPRP,-0.111
2,RRIRPRPPRLPRPRPRPRKGPRP,0.322
3,RRIRARPPRLPRPRPRPQHIPRP,-0.0675
4,RRIRERPPRLPRPRPRPCYIPRP,-0.0464
5,RRIRSRPPRLPRPRPRPPNCPRP,0.231
6,RRIRYRPPRLPRPRPRPFLFPRP,-0.704
7,RRIRRRPPRLPRPRPRPWIQPRP,0.0321
8,RRIRYRPPRLPRPRPRPDWIPRP,-0.589
9,RRIRPRPPRLPRPRPRPSWMPRP,-0.288
10,RRIRQRPPRLPRPRPRPRLFPRP,0.701
11,RRIRIRPPRLPRPRPRPHTSPRP,-1.18
12,RRIRTRPPRLPRPRPRPQQTPRP,0.0814
13,RRIRCRPPRLPRPRPRPIHIPRP,-0.893
14,RRIRERPPRLPRPRPRPVEFPRP,-0.309
15,RRIRERPPRLPRPRPRPLTNPRP,-0.242
16,RRIRHRPPRLPRPRPRPERLPRP,0.0977
17,RRIRTRPPRLPRPRPRPIKLPRP,-0.412
18,RRIRDRPPRLPRPRPRPTYQPRP,-0.0238
19,RRIRIRPPRLPRPRPRPGHFPRP,-0.0592
20,RRIRARPPRLPRPRPRPSNQPRP,-0.0197
21,RRIRRRPPRLPRPRPRPHKSPRP,-0.0141
22,RRIRPRPPRLPRPRPRPMPQPRP,-0.0158
23,RRIRFRPPRLPRPRPRPEESPRP,0.195
24,RRIRRRPPRLPRPRPRPWKMPRP,-0.00577
25,RRIRKRPPRLPRPRPRPPNAPRP,0.711

row,Sequence,shrunken log2 fold change
1,RRIRWRPPRLPRPRPRPRWLPRP,0.224
2,RRIRNRPPRLPRPRPRPRINPRP,-0.14
3,RRIRWRPPRLPRPRPRPPTGPRP,0.23
4,RRIRKRPPRLPRPRPRPVPWPRP,0.572
5,RRIRMRPPRLPRPRPRPRNVPRP,0.29
6,RRIRERPPRLPRPRPRPNCYPRP,-0.342
7,RRIRPRPPRLPRPRPRPQSIPRP,-0.105
8,RRIRPRPPRLPRPRPRPKHMPRP,-0.0288
9,RRIRRRPPRLPRPRPRPCDRPRP,0.0985
10,RRIRQRPPRLPRPRPRPIAFPRP,-0.168
11,RRIRIRPPRLPRPRPRPIAKPRP,-0.0645
12,RRIRWRPPRLPRPRPRPCQEPRP,-0.15
13,RRIRNRPPRLPRPRPRPSYHPRP,-0.273
14,RRIRPRPPRLPRPRPRPVCNPRP,-0.141
15,RRIRRRPPRLPRPRPRPMEEPRP,0.0408
16,RRIRRRPPRLPRPRPRPHFWPRP,0.51
17,RRIRCRPPRLPRPRPRPMTCPRP,-0.205
18,RRIRTRPPRLPRPRPRPGTFPRP,-0.116
19,RRIRTRPPRLPRPRPRPYRLPRP,-0.0268
20,RRIRQRPPRLPRPRPRPTSAPRP,0.257
21,RRIRRRPPRLPRPRPRPCVVPRP,0.152
22,RRIRKRPPRLPRPRPRPARQPRP,0.356
23,RRIRHRPPRLPRPRPRPEHSPRP,-0.179
24,RRIRKRPPRLPRPRPRPREPPRP,1.39
25,RRIRRRPPRLPRPRPRPDWQPRP,0.399

row,Sequence,shrunken log2 fold change
1,RRIRMRPPRLPRPRPRPSYKPRP,-0.296
2,RRIRNRPPRLPRPRPRPTTAPRP,-0.0817
3,RRIRCRPPRLPRPRPRPQTAPRP,0.225
4,RRIRWRPPRLPRPRPRPWHHPRP,-0.0157
5,RRIRDRPPRLPRPRPRPCISPRP,0.0261
6,RRIRDRPPRLPRPRPRPPFCPRP,0.284
7,RRIRPRPPRLPRPRPRPMDGPRP,0.214
8,RRIRWRPPRLPRPRPRPEKFPRP,0.0209
9,RRIRARPPRLPRPRPRPFMVPRP,-0.235
10,RRIRMRPPRLPRPRPRPVASPRP,0.58
11,RRIRSRPPRLPRPRPRPTCAPRP,0.301
12,RRIRGRPPRLPRPRPRPSIAPRP,0.669
13,RRIRPRPPRLPRPRPRPQWSPRP,-0.226
14,RRIRERPPRLPRPRPRPRINPRP,-0.427
15,RRIRYRPPRLPRPRPRPMIRPRP,-0.0021
16,RRIRERPPRLPRPRPRPRGYPRP,-0.1
17,RRIRGRPPRLPRPRPRPIPNPRP,0.172
18,RRIRWRPPRLPRPRPRPERYPRP,0.142
19,RRIRCRPPRLPRPRPRPKCTPRP,-0.0914
20,RRIRQRPPRLPRPRPRPRGHPRP,0.342
21,RRIRDRPPRLPRPRPRPPTVPRP,0.381
22,RRIRQRPPRLPRPRPRPQIAPRP,-0.133
23,RRIRIRPPRLPRPRPRPKEPPRP,0.0805
24,RRIRRRPPRLPRPRPRPYYHPRP,-0.645
25,RRIRWRPPRLPRPRPRPRNRPRP,-0.0206
